Target: Glut1 (UniProt P11166)
Assay: Flag IP, HA-TXNIP blot
Conditions: reference: HA-TXNIP wild type, 2DG-treated cells; sites S308

TXNIP (from UniProt Q9H3M7) HA-TXNIP S308A, 2DG-treated cells
binding against the reference: stronger
